Data taken from publication PMC3225178.

Target: SmLip residues 27-176 (mature Lip minus signal peptide) fused to T18 (pSC072) or to T25 (pSC080) (Serratia marcescens)
Assay: two-hybrid

Question: “SmLip residues 27-176 (mature Lip minus signal peptide) fused to T18 (pSC072) or to T25 (pSC080) (domain or fragment)” was tested. Which β-galactosidase activity (two-hybrid output) did it give?
Answer: The β-galactosidase activity (two-hybrid output) was over 5000 Miller units.
